{"source": "IntAct's records for PubMed 19731236", "parents": {"B1": {"name": "Phospholipid-transporting ATPase IC (Homo sapiens), O43520 (parent)", "chain": "MSTERDSETTFDEDSQPNDEVVPYSDDETEDELDDQGSAVEPEQNRVNREAEENREPFRKECTWQVKANDRKYHEQPHFMNTKFLCIKESKYANNAIKTYKYNAFTFIPMNLFEQFKRAANLYFLALLILQAVPQISTLAWYTTLVPLLVVLGVTAIKDLVDDVARHKMDKEINNRTCEVIKDGRFKVAKWKEIQVGDVIRLKKNDFVPADILLLSSSEPNSLCYVETAELDGETNLKFKMSLEITDQYLQREDTLATFDGFIECEEPNNRLDKFTGTLFWRNTSFPLDADKILLRGCVIRNTDFCHGLVIFAGADTKIMKNSGKTRFKRTKIDYLMNYMVYTIFVVLILLSAGLAIGHAYWEAQVGNSSWYLYDGEDDTPSYRGFLIFWGYIIVLNTMVPISLYVSVEVIRLGQSHFINWDLQMYYAEKDTPAKARTTTLNEQLGQIHYIFSDKTGTLTQNIMTFKKCCINGQIYGDHRDASQHNHNKIEQVDFSWNTYADGKLAFYDHYLIEQIQSGKEPEVRQFFFLLAVCHTVMVDRTDGQLNYQAASPDEGALVNAARNFGFAFLARTQNTITISELGTERTYNVLAILDFNSDRKRMSIIVRTPEGNIKLYCKGADTVIYERLHRMNPTKQETQDALDIFANETLRTLCLCYKEIEEKEFTEWNKKFMAASVASTNRDEALDKVYEEIEKDLILLGATAIEDKLQDGVPETISKLAKADIKIWVLTGDKKETAENIGFACELLTEDTTICYGEDINSLLHARMENQRNRGGVYAKFAPPVQESFFPPGGNRALIITGSWLNEILLEKKTKRNKILKLKFPRTEEERRMRTQSKRRLEAKKEQRQKNFVDLACECSAVICCRVTPKQKAMVVDLVKRYKKAITLAIGDGANDVNMIKTAHIGVGISGQEGMQAVMSSDYSFAQFRYLQRLLLVHGRWSYIRMCKFLRYFFYKNFAFTLVHFWYSFFNGYSAQTAYEDWFITLYNVLYTSLPVLLMGLLDQDVSDKLSLRFPGLYIVGQRDLLFNYKRFFVSLLHGVLTSMILFFIPLGAYLQTVGQDGEAPSDYQSFAVTIASALVITVNFQIGLDTSYWTFVNAFSIFGSIALYFGIMFDFHSAGIHVLFPSAFQFTGTASNALRQPYIWLTIILAVAVCLLPVVAIRFLSMTIWPSESDKIQKHRKRLKAEEQWQRRQQVFRRGVSTRRSAYAFSHQRGYADLISSGRSIRKKRSPLDAIVADGTAEYRRTGDS", "partner": "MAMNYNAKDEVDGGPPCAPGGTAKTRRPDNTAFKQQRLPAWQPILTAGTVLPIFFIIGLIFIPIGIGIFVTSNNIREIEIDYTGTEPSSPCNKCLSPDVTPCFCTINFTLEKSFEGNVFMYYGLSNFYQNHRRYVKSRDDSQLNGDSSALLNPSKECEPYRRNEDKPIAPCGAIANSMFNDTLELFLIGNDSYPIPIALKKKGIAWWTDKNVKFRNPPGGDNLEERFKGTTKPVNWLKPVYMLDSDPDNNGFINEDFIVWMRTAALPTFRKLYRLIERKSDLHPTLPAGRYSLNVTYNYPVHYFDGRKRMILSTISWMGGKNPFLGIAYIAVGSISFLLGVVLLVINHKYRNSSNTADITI"}}}
{"variants_of": "B1", "conditions": "with cc50a_human TMEM30A"}
{"variant": "G308V", "effect of a mutation on the interaction": "disrupting interaction"}
{"variant": "D70N", "effect of a mutation on the interaction": "decreasing interaction"}
{"variant": "R867C", "effect of a mutation on the interaction": "decreasing interaction"}
{"variant": "D454A", "effect of a mutation on the interaction": "disrupting interaction"}
{"variant": "D554N", "effect of a mutation on the interaction": "disrupting interaction"}
{"variant": "G1040R", "effect of a mutation on the interaction": "decreasing interaction"}
{"variant": "I661T", "effect of a mutation on the interaction": "decreasing interaction"}
